Publication PMC6650244

Assays:
[1] = target: CDK9 (cyclin-dependent kinase 9) (UniProt Q99J95); test: co-immunoprecipitation (IP: BMAL1) with immunoblot, chemiluminescence band intensity; settings: nuclear extracts, synchronized fibroblasts 24 hr after Dex, scale: relative band intensity
[2] = target: BRD4 (bromodomain-containing protein 4) (UniProt Q9ESU6); test: as above; settings: nuclear extracts, synchronized fibroblasts 24 hr after Dex, scale: relative band intensity
[3] = highest amount of IP (two-fold dilution series, lane 3 of 3)
[4] = lowest amount of IP (two-fold dilution series, lane 1 of 3)
[5] = middle amount of IP (two-fold dilution series, lane 2 of 3)

With “BMAL1 (brain and muscle ARNT-like protein 1) K538R” the response [1, 3] was 0.07, the response [1, 4] was 0.01 and the response [1, 5] was 0.03. It also gave a response [2, 3] of 0.1, a response [2, 4] of 0.02 and a response [2, 5] of 0.06.
